The assay deals with GFP1–10 tagged with MCP, with nuclear localization sequences. Description: P3 editing (protein-protein proximity sensor; genome editing read-out); HEK293T cells transfected with one of 12 designs of crRNA-MS2/BoxB-petracrRNA (upper 4-bp region of the repeat:anti-repeat duplex varied), PE4max and split-GFP or standard GFP (background); editing normalized to the eCTT control.

With “GFP11 tagged with LambdaN, with nuclear localization sequences (peptide)”, the normalized editing efficiency (GAUA:UAUC guide RNA design) amounted to 3.8%.
